Measurements reported in publication PMC7305997 (ACS chemical biology, 2020).
Ends that are not written are not given here.

T1: full length human CIB1 (Homo sapiens, UniProt Q99828)
T1 sequence (Q99828 1-191): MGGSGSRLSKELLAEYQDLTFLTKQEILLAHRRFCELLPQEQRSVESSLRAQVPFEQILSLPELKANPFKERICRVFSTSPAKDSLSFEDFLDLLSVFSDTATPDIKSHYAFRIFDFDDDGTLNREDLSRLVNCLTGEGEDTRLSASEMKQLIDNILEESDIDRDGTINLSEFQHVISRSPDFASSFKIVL

T2: biotinylated CIB1 (Homo sapiens, UniProt Q99828)
T2 sequence (Q99828 1-191): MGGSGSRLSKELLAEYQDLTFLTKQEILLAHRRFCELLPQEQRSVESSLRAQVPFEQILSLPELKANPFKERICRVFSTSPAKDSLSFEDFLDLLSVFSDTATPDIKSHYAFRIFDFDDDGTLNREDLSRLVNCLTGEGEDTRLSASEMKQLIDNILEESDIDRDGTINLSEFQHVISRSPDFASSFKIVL

T3: Full length human CIB1 (calcium and integrin binding protein 1), N-terminal hexahistidine tag (human, UniProt Q99828 1-191)
T3 sequence (looked up): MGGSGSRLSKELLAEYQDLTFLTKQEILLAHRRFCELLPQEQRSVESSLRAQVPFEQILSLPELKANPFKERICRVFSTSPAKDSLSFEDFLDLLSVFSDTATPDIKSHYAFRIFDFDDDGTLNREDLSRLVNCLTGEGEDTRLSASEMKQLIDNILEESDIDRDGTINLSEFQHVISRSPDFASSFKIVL


Legend:
full length human CIB1 = target: T1, full length human CIB1; test: Isothermal titration calorimetry; conditions: ITC, 25°C, one site binding model; replicates as for Kd
biotinylated CIB1 = target: T2, biotinylated CIB1; test: biochemical; type: binding
[1] = target: T3, Full length human CIB1 (calcium and …); test: ITC

dH [1]	stoichiometry N [1]	Molecule	also measured
-7.1 kcal/mol	1.1	EDGGSFWYGAMKALAG [UNC10245092 Y10A]	–
-8.1 kcal/mol	1	EDGGSFWYGAAKALYG [UNC10245092 M6A]	–
-5.9 kcal/mol	0.67	EDGGSFAYGAMKALYG [UNC10245092 W2A]	–
-8.8 kcal/mol	0.99	EDGGSFWYGAMKAAYG [UNC10245092 L9A]	–
-16.1 kcal/mol	1	EDGGSFWAGAMKALYG [UNC10245092 Y3A]	–

The next lines start with the molecule.

Molecule	dH [1]	stoichiometry N [1]	also measured
EDGGSFWYGAMKALYG-NH2 [UNC10245092]	–	–	n (binding stoichiometry) (full length human CIB1): 1.1 ± 0.1; ΔH (full length human CIB1): -14.4 ± 2.2 kcal/mol; IC50 (biotinylated CIB1): 46 ± 13 nM; Kd (biotinylated CIB1): 46 ± 13 nM
EDGGSFWYGGMKALYG [UNC10245092 A5G]	-7.7 kcal/mol	1	–
EDGGSAWYGAMKALYG [UNC10245092 F1A]	-9.8 kcal/mol	0.94	–
EDGGSFWYGAMKGLYG [UNC10245092 A8G]	-13.8 kcal/mol	1	–
Ac-FWYGAMKALYG [Acetyl short (Ac-FWYGAMKALYG)]	-14 kcal/mol	1.1	Kd [1]: 52.1 nM
H-EDGGSFWYGAMKALYG-NH2 [UNC10245092 (NH2-EDGGSFWYGAMKALYG-amide)]	-14.4 kcal/mol	1.1	Kd [1]: 29.4 nM
Ac-EDGGSFWYGAMKALYG [Acetyl long (Ac-EDGGSFWYGAMKALYG)]	-16.1 kcal/mol	1.1	Kd [1]: 45 nM
